Measurements as given in publication PMC2841437.

Assays:
[1] = biological target: activated GST fusion protein of full-length human Akt1 (T308D/S473D) (human) (UniProt P31749); assay: pull-down
[2] = biological target: activated GST fusion protein of full-length human Akt1 (T308D/S473D) (human) (UniProt P31749); assay: other fluorescence titration

UniProt P31749, sequence (P31749 whole entry T308D/S473D, the tested form may be a part): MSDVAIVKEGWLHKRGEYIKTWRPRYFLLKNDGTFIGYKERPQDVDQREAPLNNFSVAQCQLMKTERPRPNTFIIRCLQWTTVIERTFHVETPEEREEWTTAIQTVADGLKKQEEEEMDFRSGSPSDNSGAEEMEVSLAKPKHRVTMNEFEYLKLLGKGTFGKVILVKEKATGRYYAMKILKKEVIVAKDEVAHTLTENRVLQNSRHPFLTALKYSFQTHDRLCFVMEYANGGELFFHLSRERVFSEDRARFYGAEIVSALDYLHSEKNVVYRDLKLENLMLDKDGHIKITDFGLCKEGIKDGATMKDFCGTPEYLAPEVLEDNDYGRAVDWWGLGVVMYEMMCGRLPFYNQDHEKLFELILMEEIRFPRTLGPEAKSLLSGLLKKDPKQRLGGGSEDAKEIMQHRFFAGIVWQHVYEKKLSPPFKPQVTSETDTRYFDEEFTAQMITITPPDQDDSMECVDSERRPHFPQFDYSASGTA

Row | percentage of recovery [1] | Kd [2] | Substance
1 | 31.7% | – | GSK-3α/β fusion protein
2 | – | 4.07 nM | T7-tagged CBP CH3 fragment with T1872D (from UniProt P45481 1756-1878) (domain or fragment)
3 | – | 1.2 nM | T7-tagged CBP CH3 fragment with T1872A (from UniProt P45481 1756-1878) (domain or fragment)
